According to the supplement of paper PMC10065799, “High-throughput profiling of sequence recognition by tyrosine kinases and SH2 domains using bacterial peptide display” (eLife, 2023):

Columns and labels:
MERTK = MERTK (UniProt Q12866); experiment: phosphorylation enrichment, bacterial display (enrichment ratio); higher = better substrate or ligand; peptides without Tyr show the background
Hck = Hck (UniProt P08631); experiment: as above
FGFR3 = FGFR3 (UniProt P22607); experiment: as above
FGFR1 = FGFR1 (UniProt P11362); experiment: as above
EPHB1 = EPHB1 (UniProt P54762); experiment: as above
Fyn = Fyn (UniProt P06241); experiment: as above
AncSZ = experiment: as above
EPHB2 = EPHB2 (UniProt P29323); experiment: as above
c-Abl (mouse) = experiment: as above
Fer (mouse) = experiment: as above
c-Src = experiment: as above
Jak2 = Jak2 (UniProt O60674); experiment: as above
Fes = Fes (UniProt P07332); experiment: as above
Grb2 SH2 = Grb2 SH2 (UniProt P62993); experiment: SH2 binding enrichment of the phosphorylated peptide, bacterial display (enrichment ratio); higher = better substrate or ligand; peptides without Tyr show the background
SHP2-C SH2 = experiment: as above
c-Src SH2 = experiment: as above
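Throughout, for SH2 binding enrichment of the phosphorylated peptide, bacterial display: peptide library displayed on the E. coli surface as eCPX fusions, selected cells deep-sequenced, score is each peptide's frequency after selection divided by its frequency in the input.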
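Throughout, for phosphorylation enrichment, bacterial display: 11-residue human phosphosite peptides and single-mutation variants displayed on the E. coli surface, counted by deep sequencing, each peptide's frequency after selection divided by its frequency in the unselected input library; frequency after pTyr selection over input frequency; kinase dosed for 20-30% of maximal phosphorylation in three min.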

EPHB2, sequence (P29323 whole entry, looked up): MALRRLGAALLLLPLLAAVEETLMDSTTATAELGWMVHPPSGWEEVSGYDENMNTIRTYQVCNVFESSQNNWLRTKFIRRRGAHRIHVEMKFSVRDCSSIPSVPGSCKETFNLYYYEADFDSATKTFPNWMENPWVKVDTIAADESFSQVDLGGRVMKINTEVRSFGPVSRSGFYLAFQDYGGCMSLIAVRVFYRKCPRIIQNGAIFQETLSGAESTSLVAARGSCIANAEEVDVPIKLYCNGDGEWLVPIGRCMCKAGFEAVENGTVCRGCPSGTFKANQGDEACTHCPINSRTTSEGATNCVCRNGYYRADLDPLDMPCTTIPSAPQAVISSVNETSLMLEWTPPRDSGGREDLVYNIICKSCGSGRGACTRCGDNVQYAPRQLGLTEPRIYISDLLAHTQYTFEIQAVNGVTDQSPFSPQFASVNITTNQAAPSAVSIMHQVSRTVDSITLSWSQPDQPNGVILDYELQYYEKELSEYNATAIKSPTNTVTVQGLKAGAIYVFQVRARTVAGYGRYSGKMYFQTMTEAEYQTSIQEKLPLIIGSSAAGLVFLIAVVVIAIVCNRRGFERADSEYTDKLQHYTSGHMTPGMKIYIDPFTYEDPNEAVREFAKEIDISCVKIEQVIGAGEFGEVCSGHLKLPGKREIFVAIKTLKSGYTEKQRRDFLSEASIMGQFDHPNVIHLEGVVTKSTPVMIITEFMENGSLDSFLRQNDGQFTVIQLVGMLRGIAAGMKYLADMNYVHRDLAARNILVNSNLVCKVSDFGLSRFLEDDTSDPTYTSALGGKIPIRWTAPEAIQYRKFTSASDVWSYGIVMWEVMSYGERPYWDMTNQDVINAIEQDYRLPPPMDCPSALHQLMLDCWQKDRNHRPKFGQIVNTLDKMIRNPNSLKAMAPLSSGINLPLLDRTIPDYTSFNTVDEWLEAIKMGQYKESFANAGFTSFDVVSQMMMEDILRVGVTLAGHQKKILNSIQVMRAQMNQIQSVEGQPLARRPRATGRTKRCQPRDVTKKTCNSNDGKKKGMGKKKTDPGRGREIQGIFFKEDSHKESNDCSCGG
Fes, sequence (P07332 whole entry, looked up): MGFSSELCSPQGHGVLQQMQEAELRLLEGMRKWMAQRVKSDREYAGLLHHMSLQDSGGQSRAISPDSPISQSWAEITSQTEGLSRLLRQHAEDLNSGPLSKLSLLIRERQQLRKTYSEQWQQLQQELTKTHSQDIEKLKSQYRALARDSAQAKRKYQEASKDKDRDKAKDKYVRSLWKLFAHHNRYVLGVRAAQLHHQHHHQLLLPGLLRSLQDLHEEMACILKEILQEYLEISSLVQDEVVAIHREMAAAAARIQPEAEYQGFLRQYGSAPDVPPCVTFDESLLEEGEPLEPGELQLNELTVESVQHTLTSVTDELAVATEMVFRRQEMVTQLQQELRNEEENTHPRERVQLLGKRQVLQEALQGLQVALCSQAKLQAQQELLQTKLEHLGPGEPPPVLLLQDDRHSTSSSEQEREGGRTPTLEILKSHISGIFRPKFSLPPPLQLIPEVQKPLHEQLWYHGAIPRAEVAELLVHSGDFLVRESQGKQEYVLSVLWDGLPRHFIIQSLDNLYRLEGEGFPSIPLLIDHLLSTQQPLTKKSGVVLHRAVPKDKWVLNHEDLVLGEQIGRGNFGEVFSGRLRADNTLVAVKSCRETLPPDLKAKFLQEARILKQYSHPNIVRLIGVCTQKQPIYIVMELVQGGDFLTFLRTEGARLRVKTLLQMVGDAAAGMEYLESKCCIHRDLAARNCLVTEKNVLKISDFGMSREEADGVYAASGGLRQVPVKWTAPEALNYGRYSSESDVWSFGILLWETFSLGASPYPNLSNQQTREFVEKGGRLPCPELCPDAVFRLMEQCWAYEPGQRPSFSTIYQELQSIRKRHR
Hck, sequence (P08631 whole entry, looked up): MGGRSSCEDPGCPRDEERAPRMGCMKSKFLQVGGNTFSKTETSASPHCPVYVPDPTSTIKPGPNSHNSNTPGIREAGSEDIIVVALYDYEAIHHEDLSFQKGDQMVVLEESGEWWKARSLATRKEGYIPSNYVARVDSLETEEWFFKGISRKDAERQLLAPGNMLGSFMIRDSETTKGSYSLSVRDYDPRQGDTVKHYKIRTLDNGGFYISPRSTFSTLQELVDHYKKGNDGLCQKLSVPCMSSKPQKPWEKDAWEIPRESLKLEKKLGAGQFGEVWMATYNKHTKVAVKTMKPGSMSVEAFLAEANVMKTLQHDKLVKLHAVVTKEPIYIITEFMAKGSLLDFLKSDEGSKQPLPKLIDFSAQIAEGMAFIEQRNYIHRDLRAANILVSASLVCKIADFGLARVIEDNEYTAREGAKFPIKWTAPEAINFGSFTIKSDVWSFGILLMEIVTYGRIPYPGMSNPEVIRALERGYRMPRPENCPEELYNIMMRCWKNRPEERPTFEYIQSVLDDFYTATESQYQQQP
EPHB1, sequence (P54762 whole entry, looked up): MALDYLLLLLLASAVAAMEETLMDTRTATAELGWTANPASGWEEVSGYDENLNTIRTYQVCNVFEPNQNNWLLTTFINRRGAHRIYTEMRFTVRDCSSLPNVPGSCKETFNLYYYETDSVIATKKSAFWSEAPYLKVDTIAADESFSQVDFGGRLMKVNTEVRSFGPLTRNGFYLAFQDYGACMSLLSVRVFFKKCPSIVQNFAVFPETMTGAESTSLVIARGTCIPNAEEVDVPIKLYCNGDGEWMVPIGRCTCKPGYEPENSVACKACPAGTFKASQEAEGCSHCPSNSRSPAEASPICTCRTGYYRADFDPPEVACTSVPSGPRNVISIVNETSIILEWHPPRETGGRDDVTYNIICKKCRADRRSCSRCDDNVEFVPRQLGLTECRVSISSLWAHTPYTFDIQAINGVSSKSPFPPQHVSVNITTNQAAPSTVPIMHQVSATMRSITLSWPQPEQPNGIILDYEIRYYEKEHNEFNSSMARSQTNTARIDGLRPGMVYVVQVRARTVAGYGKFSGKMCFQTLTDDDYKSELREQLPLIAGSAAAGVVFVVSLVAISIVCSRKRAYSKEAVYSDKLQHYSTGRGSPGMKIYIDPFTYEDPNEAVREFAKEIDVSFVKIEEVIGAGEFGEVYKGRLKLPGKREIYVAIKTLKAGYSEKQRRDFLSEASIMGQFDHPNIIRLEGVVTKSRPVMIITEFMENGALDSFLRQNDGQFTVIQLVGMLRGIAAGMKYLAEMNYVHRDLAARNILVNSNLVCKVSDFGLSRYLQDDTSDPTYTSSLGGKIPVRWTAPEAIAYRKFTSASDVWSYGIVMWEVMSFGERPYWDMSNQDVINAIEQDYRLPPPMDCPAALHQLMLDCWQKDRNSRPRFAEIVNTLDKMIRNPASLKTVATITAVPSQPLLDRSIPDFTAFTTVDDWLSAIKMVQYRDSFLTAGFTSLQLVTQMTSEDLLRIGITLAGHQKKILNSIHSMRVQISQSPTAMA
Jak2, sequence (O60674 whole entry, looked up): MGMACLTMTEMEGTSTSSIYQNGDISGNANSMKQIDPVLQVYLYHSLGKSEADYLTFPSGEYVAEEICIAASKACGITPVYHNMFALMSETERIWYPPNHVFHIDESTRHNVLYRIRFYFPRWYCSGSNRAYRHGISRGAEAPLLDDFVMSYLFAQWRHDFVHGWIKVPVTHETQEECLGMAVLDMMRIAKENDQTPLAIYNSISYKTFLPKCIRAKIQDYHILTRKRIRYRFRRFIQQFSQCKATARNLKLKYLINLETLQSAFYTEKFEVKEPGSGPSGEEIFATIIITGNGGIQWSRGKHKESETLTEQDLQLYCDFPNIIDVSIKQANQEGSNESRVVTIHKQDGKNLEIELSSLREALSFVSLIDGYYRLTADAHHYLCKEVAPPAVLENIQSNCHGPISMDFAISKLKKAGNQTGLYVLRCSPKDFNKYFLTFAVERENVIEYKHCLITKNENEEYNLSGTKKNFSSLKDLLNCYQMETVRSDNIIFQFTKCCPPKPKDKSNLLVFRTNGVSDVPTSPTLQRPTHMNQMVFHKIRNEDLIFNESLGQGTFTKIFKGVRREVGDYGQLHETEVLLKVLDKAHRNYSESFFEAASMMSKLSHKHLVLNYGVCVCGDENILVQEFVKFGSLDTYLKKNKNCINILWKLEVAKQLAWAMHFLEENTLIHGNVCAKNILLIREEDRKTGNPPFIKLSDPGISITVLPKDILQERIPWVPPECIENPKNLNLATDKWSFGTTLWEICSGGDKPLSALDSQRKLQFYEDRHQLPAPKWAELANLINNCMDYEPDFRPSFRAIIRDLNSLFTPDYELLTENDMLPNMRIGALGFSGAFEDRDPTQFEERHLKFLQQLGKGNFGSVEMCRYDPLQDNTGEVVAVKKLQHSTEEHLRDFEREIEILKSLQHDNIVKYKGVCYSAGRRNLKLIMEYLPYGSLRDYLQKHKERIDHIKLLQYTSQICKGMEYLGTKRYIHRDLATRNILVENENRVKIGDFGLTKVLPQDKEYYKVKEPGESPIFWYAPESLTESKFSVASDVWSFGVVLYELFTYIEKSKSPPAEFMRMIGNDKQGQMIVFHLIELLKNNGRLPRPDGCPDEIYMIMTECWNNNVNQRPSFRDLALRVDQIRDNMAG
Fyn, sequence (P06241 whole entry, looked up): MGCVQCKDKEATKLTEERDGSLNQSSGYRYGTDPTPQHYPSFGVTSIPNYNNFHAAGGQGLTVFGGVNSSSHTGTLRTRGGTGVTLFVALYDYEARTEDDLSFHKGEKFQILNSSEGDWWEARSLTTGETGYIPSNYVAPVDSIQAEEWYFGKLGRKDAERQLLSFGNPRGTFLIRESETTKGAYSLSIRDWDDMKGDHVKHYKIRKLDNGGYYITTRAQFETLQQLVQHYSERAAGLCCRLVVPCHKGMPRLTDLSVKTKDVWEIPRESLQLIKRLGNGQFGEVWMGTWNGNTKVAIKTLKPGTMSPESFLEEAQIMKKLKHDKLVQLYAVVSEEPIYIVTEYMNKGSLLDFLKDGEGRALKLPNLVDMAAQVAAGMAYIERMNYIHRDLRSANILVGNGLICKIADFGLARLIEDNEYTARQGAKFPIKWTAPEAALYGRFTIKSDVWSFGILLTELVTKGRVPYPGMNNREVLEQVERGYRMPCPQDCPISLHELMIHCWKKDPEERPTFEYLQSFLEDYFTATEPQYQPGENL

| SH2 binding enrichment (Grb2 SH2) | SH2 binding enrichment (SHP2-C SH2) | SH2 binding enrichment (c-Src SH2) | Sequence | phosphorylation enrichment (MERTK) | phosphorylation enrichment (Hck) | phosphorylation enrichment (FGFR3) | phosphorylation enrichment (FGFR1) | phosphorylation enrichment (EPHB1) | phosphorylation enrichment (Fyn) | phosphorylation enrichment (AncSZ) | phosphorylation enrichment (EPHB2) | phosphorylation enrichment (c-Abl (mouse)) | phosphorylation enrichment (Fer (mouse)) | phosphorylation enrichment (c-Src) | phosphorylation enrichment (Jak2) | phosphorylation enrichment (Fes) |
| --- | --- | --- | --- | --- | --- | --- | --- | --- | --- | --- | --- | --- | --- | --- | --- | --- |
| 0.849 | 0.623 | 0.558 | FADGVYLALEE [DUOX2_Y70_Q71L_YF] | 0.641 | 1.51 | 1.02 | 0.881 | 1.19 | 2.15 | 1.63 | 0.991 | 0.647 | 0.584 | 2.47 | 0.968 | 1.04 |
| 0.576 | 0.523 | 0.597 | HNLFSYPTKHE [MYO3A_Y1396_YF] | 0.868 | 0.874 | 0.738 | 0.74 | 0.65 | 0.631 | 0.773 | 0.624 | 0.65 | 0.624 | 0.531 | 1.01 | 0.989 |
| 1.33 | 0.892 | 3.23 | KFMVGYEMLAQ [GALT_Y339] | 0.343 | 0.526 | 0.697 | 0.553 | 0.519 | 0.417 | 0.88 | 0.504 | 0.622 | 0.511 | 0.382 | 0.833 | 0.897 |
| 1.13 | 0.651 | 0.531 | KLKRSYSSRDI [USP8_Y717_P720R] | 0.432 | 0.327 | 0.368 | 0.289 | 0.351 | 0.329 | 0.45 | 0.409 | 0.51 | 0.371 | 0.458 | 0.51 | 0.464 |
| 0.86 | 1.66 | 0.727 | LNPLIYSLRNK [OR5R1_Y290] | 1.5 | 8.23 | 1.44 | 1.94 | 2.03 | 6.76 | 1.13 | 1.29 | 2.28 | 1.21 | 6.55 | 1.13 | 2.46 |
| 0.481 | 0.544 | 0.466 | FSQETYFRVSN [ABCD1_Y180_Q178E_YF] | 0.74 | 0.868 | 1.23 | 1.64 | 1.08 | 0.592 | 1 | 0.706 | 0.661 | 0.45 | 1.51 | 3 | 1.1 |
| 2 | 1.18 | 1.13 | DSFSSYCNAVA [SLC20A2_Y436_YF] | 0.503 | 0.544 | 0.812 | 0.497 | 0.642 | 0.509 | 1.24 | 0.826 | 0.801 | 0.608 | 0.579 | 1.06 | 1.11 |
| 0.818 | 0.616 | 0.521 | GIVEDYRPPFF [ACVRL1_Y421_YF] | 0.417 | 0.413 | 0.667 | 0.468 | 0.497 | 0.464 | 0.825 | 0.498 | 0.701 | 0.443 | 0.42 | 0.814 | 0.899 |
| 0.676 | 0.553 | 0.402 | CEAMEYLESKQ [BTK_Y511] | 0.688 | 0.751 | 1.01 | 0.655 | 0.882 | 0.557 | 1.94 | 0.811 | 1.36 | 0.788 | 0.839 | 1.89 | 1.95 |
| 0.822 | 0.494 | 2.02 | YTDPYYDYEIE [ZC3H18_Y372_A368T] | 1.31 | 0.967 | 7.56 | 9.65 | 1.39 | 1.96 | 2.13 | 1.06 | 0.871 | 1.22 | 2.94 | 1.31 | 1.27 |
| 0.868 | 0.809 | 0.624 | TLPAFYMGNFS [GLB1_Y552] | 0.538 | 0.565 | 0.728 | 0.543 | 0.645 | 0.627 | 0.998 | 0.619 | 0.661 | 0.625 | 0.523 | 1.03 | 1.02 |
| 0.781 | 0.527 | 2.93 | YQEPVYSVAFS [TBL1X_Y509_H504Y] | 12.7 | 11.1 | 5.72 | 6.72 | 18.9 | 12.4 | 5.95 | 26.2 | 29.6 | 17.5 | 8.72 | 0.989 | 4.74 |
| 0.997 | 0.427 | 0.425 | PKGTGYIKTES [STAT1_Y701_L706S] | 0.553 | 0.525 | 0.487 | 0.604 | 0.504 | 0.466 | 0.588 | 0.449 | 0.868 | 0.392 | 0.601 | 1.22 | 1.2 |
| 0.845 | 0.658 | 16.7 | GPKFGYDEIDN [ACOX1_Y232] | 0.381 | 0.359 | 0.527 | 0.42 | 0.44 | 0.406 | 0.993 | 0.688 | 0.531 | 0.344 | 0.453 | 0.765 | 0.874 |
| 0.91 | 0.634 | 0.691 | VPVNGYQPVPA [ROR2_Y824] | 0.382 | 0.422 | 0.517 | 0.55 | 0.554 | 0.382 | 0.859 | 0.391 | 0.439 | 0.52 | 0.413 | 0.416 | 0.748 |
| 0.756 | 0.478 | 0.381 | GNLLIYTELGK [HGD_Y166_F169L] | 4.86 | 5.3 | 1.19 | 1.29 | 3.98 | 5.68 | 1.46 | 2.57 | 2.29 | 0.986 | 4.74 | 1.21 | 1.43 |
| 0.789 | 0.74 | 0.361 | FLNSIYQSRDE [ROS1_Y2227_K2228Q] | 0.489 | 4.33 | 0.785 | 0.353 | 0.533 | 4.07 | 0.743 | 0.441 | 0.775 | 0.548 | 4.63 | 0.791 | 0.764 |

| SH2 binding enrichment (Grb2 SH2) | SH2 binding enrichment (SHP2-C SH2) | SH2 binding enrichment (c-Src SH2) | Sequence | phosphorylation enrichment (MERTK) | phosphorylation enrichment (Hck) | phosphorylation enrichment (FGFR3) | phosphorylation enrichment (FGFR1) | phosphorylation enrichment (EPHB1) | phosphorylation enrichment (Fyn) | phosphorylation enrichment (AncSZ) | phosphorylation enrichment (EPHB2) | phosphorylation enrichment (c-Abl (mouse)) | phosphorylation enrichment (Fer (mouse)) | phosphorylation enrichment (c-Src) | phosphorylation enrichment (Jak2) | phosphorylation enrichment (Fes) |
| --- | --- | --- | --- | --- | --- | --- | --- | --- | --- | --- | --- | --- | --- | --- | --- | --- |
| 0.867 | 1.1 | 0.398 | PLAVPYLDKPP [JMJD7_Y31] | 0.614 | 0.711 | 0.769 | 0.504 | 0.355 | 0.46 | 0.825 | 0.608 | 0.658 | 0.614 | 0.549 | 0.742 | 1.06 |
| 0.804 | 0.513 | 1.59 | QRPGLYDRPGA [HNRNPH2_Y210_P209L] | 0.852 | 1.22 | 0.773 | 0.651 | 0.933 | 0.741 | 0.737 | 0.512 | 1.2 | 0.802 | 0.806 | 0.829 | 0.943 |
| 0.958 | 0.813 | 0.607 | QKINKYLTVPA [SLC9A1_Y683_N682K] | 0.52 | 0.356 | 0.854 | 0.659 | 0.282 | 0.461 | 1.77 | 0.67 | 0.462 | 0.567 | 0.762 | 0.588 | 0.625 |
| 0.588 | 0.524 | 0.366 | TLGPFYPSLLF [CRYAA_Y18_R21L] | 0.452 | 0.51 | 1.09 | 0.646 | 0.687 | 0.535 | 0.865 | 0.541 | 0.667 | 0.544 | 0.455 | 0.776 | 1.03 |
| 1.25 | 0.83 | 0.623 | EEGESHVCSSD [DCX_Y125_Y125H] | 0.528 | 0.497 | 0.573 | 0.518 | 0.465 | 0.54 | 0.96 | 0.545 | 0.673 | 0.519 | 0.525 | 0.945 | 1.07 |
| 0.884 | 0.702 | 0.514 | FEELVYETVRV [FSHB_Y76_K72E] | 4.67 | 6.88 | 1.82 | 2.21 | 4.38 | 7.8 | 3.82 | 5.12 | 11.5 | 12.8 | 5.16 | 0.843 | 6.25 |
| 0.991 | 0.661 | 0.509 | TQIGQYGNGLK [MORC2_Y100] | 0.316 | 0.421 | 0.345 | 0.434 | 0.29 | 0.352 | 0.475 | 0.258 | 0.339 | 0.387 | 0.272 | 0.358 | 0.432 |
| 0.729 | 0.552 | 0.576 | SSDKVYAHQMD [MLH1_Y379_V384D] | 0.408 | 0.419 | 0.52 | 0.452 | 0.537 | 0.493 | 0.611 | 0.502 | 0.442 | 0.395 | 0.491 | 0.497 | 0.708 |
| 0.897 | 1.08 | 0.617 | ADRTRYSAFGG [RBM4_Y361_A359T] | 0.382 | 0.37 | 0.44 | 0.391 | 0.345 | 0.413 | 0.599 | 0.356 | 0.495 | 0.4 | 0.399 | 0.551 | 0.797 |
| 5.27 | 0.902 | 1.39 | MGHVNYGAYIN [GLB1_Y485_R482H] | 0.358 | 0.471 | 0.444 | 0.384 | 0.535 | 0.521 | 0.602 | 0.796 | 0.571 | 0.395 | 0.589 | 0.672 | 0.661 |
| 0.745 | 1.4 | 3.37 | PMFHSYVSLPF [PLXNA2_Y293_K289M] | 1.2 | 3.34 | 2.26 | 3.85 | 1.98 | 1.08 | 1.4 | 1.86 | 0.712 | 0.789 | 0.751 | 2.01 | 1.56 |
| 0.757 | 0.479 | 0.475 | KSNSDYVDVLP [SH2D1B_Y127_N122K] | 0.43 | 0.477 | 1.68 | 2.42 | 3.1 | 0.419 | 1.11 | 1.45 | 0.531 | 0.583 | 0.449 | 0.705 | 0.887 |
| 0.869 | 0.765 | 0.452 | RAEIVYKSPVV [MAPT_Y711_G706R] | 0.415 | 0.674 | 0.857 | 0.783 | 0.663 | 0.482 | 0.995 | 0.507 | 16.4 | 0.363 | 0.723 | 0.779 | 1.46 |
| 0.75 | 0.677 | 0.544 | RLDRSYSFSFS [PEAR1_Y890_YF] | 0.62 | 0.791 | 0.607 | 0.738 | 0.783 | 0.702 | 1.06 | 0.48 | 0.593 | 0.809 | 0.575 | 0.816 | 0.984 |
| 0.858 | 0.699 | 2.79 | AQAERYDDMAA [YWHAG_Y20_E15A] | 0.389 | 0.476 | 0.67 | 0.469 | 0.577 | 0.478 | 0.871 | 0.595 | 0.668 | 0.529 | 0.439 | 0.954 | 0.881 |
| 0.878 | 1.04 | 0.555 | NFADPYRQLQF [CTNND2_Y503_YF] | 0.454 | 0.539 | 0.557 | 0.516 | 0.494 | 0.473 | 0.765 | 0.502 | 0.654 | 0.436 | 0.563 | 0.667 | 0.826 |
